According to patent US20160000865A1 (REGENTS OF THE UNIVERSITY OF MICHIGAN, published 2016):

B1: Extracellular Ig5 domain of Robo1 fused with GST (other, human, UniProt Q9Y6N7 455-541, looked up)
chain: PVIRQGPVNQTVAVDGTFVLSCVATGSPVPTILWRKDGVLVSTQDSRIKQLENGVLQIRYAKLGDTGRYTCIASTPSGEATWSAYIE
notes: domain: extracellular Ig5 domain; also called GST-Ig5; not shown: glutathione S-transferase of the PGEX6P1 vector
B2: Extracellular Ig2 domain of Robo1 fused with GST (other, human, UniProt Q9Y6N7 170-257, looked up)
chain: DDFRQNPSDVMVAVGEPAVMECQPPRGHPEPTISWKKDGSPLDDKDERITIRGGKLMITYTRKSDAGKYVCVGTNMVGERESEVAELT
notes: domain: extracellular Ig2 domain; also called GST-Ig2; not shown: glutathione S-transferase of the PGEX6P1 vector
B3: Endogenous Robo1 of mouse small intestinal crypts (receptor, UniProt O89026 20-1612, looked up)
chain: SRLRQEDFPPRIVEHPSDLIVSKGEPATLNCKAEGRPTPTIEWYKGGERVETDKDDPRSHRMLLPSGSLFFLRIVHGRKSRPDEGVYICVARNYLGEAVSHNASLEVAILRDDFRQNPSDVMVAVGEPAVMECQPPRGHPEPTISWKKDGSPLDDKDERITIRGGKLMITYTRKSDAGKYVCVGTNMVGERESEVAELTVLERPSFVKRPSNLAVTVDDSAEFKCEARGDPVPTVRWRKDDGELPKSRYEIRDDHTLKIRKVTAGDMGSYTCVAENMVGKAEASATLTVQEPPHFVVKPRDQVVALGRTVTFQCEATGNPQPAIFWRREGSQNLLFSYQPPQSSSRFSVSQTGDLTITNVQRSDVGYYICQTLNVAGSIITKAYLEVTDVIADRPPPVIRQGPVNQTVAVDGTLILSCVATGSPAPTILWRKDGVLVSTQDSRIKQLESGVLQIRYAKLGDTGRYTCTASTPSGEATWSAYIEVQEFGVPVQPPRPTDPNLIPSAPSKPEVTDVSKNTVTLSWQPNLNSGATPTSYIIEAFSHASGSSWQTAAENVKTETFAIKGLKPNAIYLFLVRAANAYGISDPSQISDPVKTQDVPPTSQGVDHKQVQRELGNVVLHLHNPTILSSSSVEVHWTVDQQSQYIQGYKILYRPSGASHGESEWLVFEVRTPTKNSVVIPDLRKGVNYEIKARPFFNEFQGADSEIKFAKTLEEAPSAPPRSVTVSKNDGNGTAILVTWQPPPEDTQNGMVQEYKVWCLGNETKYHINKTVDGSTFSVVIPSLVPGIRYSVEVAASTGAGPGVKSEPQFIQLDSHGNPVSPEDQVSLAQQISDVVRQPAFIAGIGAACWIILMVFSIWLYRHRKKRNGLTSTYAGIRKVPSFTFTPTVTYQRGGEAVSSGGRPGLLNISEPATQPWLADTWPNTGNNHNDCSINCCTAGNGNSDSNLTTYSRPADCIANYNNQLDNKQTNLMLPESTVYGDVDLSNKINEMKTFNSPNLKDGRFVNPSGQPTPYATTQLIQANLSNNMNNGAGDSSEKHWKPPGQQKPEVAPIQYNIMEQNKLNKDYRANDTIPPTIPYNQSYDQNTGGSYNSSDRGSSTSGSQGHKKGARTPKAPKQGGMNWADLLPPPPAHPPPHSNSEEYNMSVDESYDQEMPCPVPPAPMYLQQDELQEEEDERGPTPPVRGAASSPAAVSYSHQSTATLTPSPQEELQPMLQDCPEDLGHMPHPPDRRRQPVSPPPPPRPISPPHTYGYISGPLVSDMDTDAPEEEEDEADMEVAKMQTRRLLLRGLEQTPASSVGDLESSVTGSMINGWGSASEEDNISSGRSSVSSSDGSFFTDADFAQAVAAAAEYAGLKVARRQMQDAAGRRHFHASQCPRPTSPVSTDSNMSAVVIQKARPAKKQKHQPGHLRREAYADDLPPPPVPPPAIKSPTVQSKAQLEVRPVMVPKLASIEARTDRSSDRKGGSYKGREALDGRQVTDLRTNPSDPREAQEQPNDGKGRGTRQPKRDLPPAKTHLGQEDILPYCRPTFPTSNNPRDPSSSSSMSSRGSGSRQREQANVGRRNMAEMQVLGGFERGDENNEELEETES
notes: also called native Robo1
B4: Carboxyl-terminal segment of Rspo1 including one TSR repeat, fused with 6-His tag (ligand, human, UniProt Q2MKA7 147-263, looked up)
chain: QCEMSEWSPWGPCSKKQQLCGFRRGSEERTRRVLHAPVGDHAACSDTKETRRCTVRRVPCPEGQKRRKGGQGRRENANRNLARKESKEAGAGSRRRKGQQQQQQQGTVGPLTSAGPA
notes: domain: carboxyl-terminus of Rspo1 containing one TSR repeat; also called rRspo1-C; Rspo1-C; not shown: 6-His tag of the PETM vector
B5: Native Rspo1 of mouse small intestinal crypts (ligand, UniProt Q9Z132 21-265, looked up)
chain: SRGIKGKRQRRISAEGSQACAKGCELCSEVNGCLKCSPKLFILLERNDIRQVGVCLPSCPPGYFDARNPDMNKCIKCKIEHCEACFSHNFCTKCQEALYLHKGRCYPACPEGSTAANSTMECGSPAQCEMSEWSPWGPCSKKRKLCGFRKGSEERTRRVLHAPGGDHTTCSDTKETRKCTVRRTPCPEGQKRRKGGQGRRENANRHPARKNSKEPRSNSRRHKGQQQPQPGTTGPLTSVGPTWAQ

Assays:
[1] = biological target: T1, Recombinant human Rspo1 fused with 6-His (His) tag expressed in Sf9 insect cells (human, UniProt Q2MKA7 21-263); test: glutathione-Sepharose pulldown, immunoblot
T1 construct: Baculovirus expression; also called rRspo1; R-spondin 1; not shown: 6-His tag
Method: (§1) To confirm our initial findings, various deletion mutants of Robo1 fused with hemagglutin (HA) tag were employed (FIG. 15B) (see, e.g., Wong, K., et al., (2001) Cell 107, 209-221). Recombinant human Rspo1 fused with 6-His (His) tag expressed in Sf9 insect cells (rRspo1; FIG. 15C and FIG. 17B) were also purified. […] Following incubation, immunoprecipitation was performed by the anti-HA Ab, followed by immunoblotting with the Abs for rRspo1 (His) and Robo1 (HA). […] Compared to human IgG (hIgG) bound Protein A (Pro-A) beads, recombinant Robo1-Fc chimera (rRobo1-Fc; FIG. 17C) bound Pro-A beads precipitated rRspo1 (His; FIG. 15E and FIG. 16C). Additionally, rRobo1-Fc bound Pro-A beads precipitated purified recombinant Rspo1-N (rRspo1-N), but not recombinant Rspo1-C (rRspo1-C; FIGS. 15C and F and FIGS. 16D and 17B). To determine which extracellular Ig domains of Robo1 could recognize Rspo1, recombinant extracellular Ig domains 1-5 of Robo1 fused with glutathione S-transferase were constructed, expressed and purified (GST-Ig1-5; FIG. 15B and FIG. 16D).
For the pulldown assay, 3 μg of the appropriate purified GST-tagged fusion protein and isolated His-tagged fusion protein were incubated with 20 μl glutathione Sepharose beads (GE Healthcare Biosciences) in PBS containing 1% BSA at 4° C. for 2 h. […]

[2] = biological target: T2, Native LRP6 of mouse small intestinal crypts (mouse, UniProt O88572 20-1613); test: immunoprecipitation of endogenous Robo1 from crypt lysates of C57 small intestines, immunoblot (FIG. 15H)
T2 construct: also called endogenous LRP6; endogenous Lrp6

[3] = biological target: T3, Recombinant human Robo1 encoding the extracellular five Ig-like domains fused with the Fc domains of human … (human, UniProt Q9Y6N7 26-540; P01857 99-330 = IgG part); test: Protein A bead pulldown, immunoblot for His
T3 construct: domain: extracellular five Ig domains (1-1621 bp);domain: Fc domains of human IgG1; also called Robo1-Fc; rRobo1-Fc
Method: as §1

[4] = biological target: B3; test: co-immunoprecipitation from mouse intestinal crypt lysates, immunoblot
Method: 293 cells were co-transfected with the plasmids of Robo1 or Robo1-dCC3 and LRP6. Transfected Robo1 was immunoprecipitated by the anti-HA Ab, followed by immunoblotting for LRP6 (myc) and Robo1 (HA). (L) LRP6 interacts with CC3. 293 cells transfected with the LRP6 plasmid were incubated with rCC0/1, rCC2 and rCC3. After washing, transfected LRP6 was immunoprecipitated by the anti-HA Ab, followed by immunoblotting for rCC0/1, rCC2 and rCC3 (His) and LRP6 (myc). (M) LRP6 M3 binds to CC3. The glutathione-Sepharose beads were incubated with the GST-M1-3. After washing, they were incubated with rCC3, followed by immunoblotting for rCC3 (His) and rGST-M1-3. (N and O) Transfected Robo1 enhances LRP6 binding to LGR5. 293 cells were co-transfected with the plasmids of LGR5 and LRP6, in the presence or absence of the Robo1 plasmid (N). Alternatively, 293 cells were co-transfected with the plasmids of LGR5, LRP6 and Robo1, followed by infection with Ad-GFP or Ad-CC3 (0). Lysates of these transfectants were immunoprecipitate for LRP6 (myc) and immunoblotted for LGR5 (flag), LRP6 (myc) and Robo1 (HA), respectively. (P) Endogenous Robo1 promotes LRP6 association with LGR5. […]
This example describes Rspo1 binds to extracellular Robo1. […] Indeed, the intestinal expression of Rspo1 was detected in the tissue sections of adult small intestine (FIG. 14). […]

T2 sequence (O88572 20-1613 limits assumed): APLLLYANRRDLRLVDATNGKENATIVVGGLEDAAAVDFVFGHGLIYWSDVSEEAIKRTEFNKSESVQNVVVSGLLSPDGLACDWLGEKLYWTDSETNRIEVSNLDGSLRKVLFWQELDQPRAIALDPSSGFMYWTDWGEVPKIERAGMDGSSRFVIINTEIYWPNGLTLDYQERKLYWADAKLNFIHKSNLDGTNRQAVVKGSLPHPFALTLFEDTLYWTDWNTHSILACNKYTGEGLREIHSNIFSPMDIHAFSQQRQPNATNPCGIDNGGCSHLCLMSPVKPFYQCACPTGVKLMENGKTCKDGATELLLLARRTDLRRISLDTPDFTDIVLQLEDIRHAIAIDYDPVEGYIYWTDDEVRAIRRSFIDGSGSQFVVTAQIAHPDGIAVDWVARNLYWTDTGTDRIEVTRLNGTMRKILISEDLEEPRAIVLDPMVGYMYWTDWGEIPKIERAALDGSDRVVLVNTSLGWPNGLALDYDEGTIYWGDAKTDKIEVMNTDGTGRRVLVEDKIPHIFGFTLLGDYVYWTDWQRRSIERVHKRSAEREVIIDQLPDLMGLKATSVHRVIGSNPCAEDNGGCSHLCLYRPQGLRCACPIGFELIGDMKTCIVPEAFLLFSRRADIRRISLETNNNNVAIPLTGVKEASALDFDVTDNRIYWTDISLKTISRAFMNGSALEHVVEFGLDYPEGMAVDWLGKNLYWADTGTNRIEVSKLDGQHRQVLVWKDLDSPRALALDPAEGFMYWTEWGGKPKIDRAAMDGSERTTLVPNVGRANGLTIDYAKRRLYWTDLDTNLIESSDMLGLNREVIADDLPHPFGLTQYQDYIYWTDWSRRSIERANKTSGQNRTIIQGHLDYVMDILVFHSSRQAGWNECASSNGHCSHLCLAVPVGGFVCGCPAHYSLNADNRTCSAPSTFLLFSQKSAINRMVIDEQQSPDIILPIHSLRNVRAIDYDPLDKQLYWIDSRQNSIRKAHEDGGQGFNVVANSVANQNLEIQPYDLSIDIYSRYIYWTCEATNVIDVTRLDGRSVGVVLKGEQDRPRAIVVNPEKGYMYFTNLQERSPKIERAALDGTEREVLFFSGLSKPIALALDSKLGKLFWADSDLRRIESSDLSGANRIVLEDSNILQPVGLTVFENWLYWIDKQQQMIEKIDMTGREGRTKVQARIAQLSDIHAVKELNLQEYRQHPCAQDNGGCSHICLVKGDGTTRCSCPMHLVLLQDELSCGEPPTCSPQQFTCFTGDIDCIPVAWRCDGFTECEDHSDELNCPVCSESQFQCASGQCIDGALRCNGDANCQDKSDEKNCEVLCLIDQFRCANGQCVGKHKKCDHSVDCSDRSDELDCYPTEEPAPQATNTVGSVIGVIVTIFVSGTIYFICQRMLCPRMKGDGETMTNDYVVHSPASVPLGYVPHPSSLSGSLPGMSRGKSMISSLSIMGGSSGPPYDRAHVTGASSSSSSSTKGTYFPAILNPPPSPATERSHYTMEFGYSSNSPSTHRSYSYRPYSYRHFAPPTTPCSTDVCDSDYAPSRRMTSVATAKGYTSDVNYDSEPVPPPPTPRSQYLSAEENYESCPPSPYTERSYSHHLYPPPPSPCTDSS
T3 sequence (Q9Y6N7 other isoform, or with tags, fused parts or gaps limits assumed): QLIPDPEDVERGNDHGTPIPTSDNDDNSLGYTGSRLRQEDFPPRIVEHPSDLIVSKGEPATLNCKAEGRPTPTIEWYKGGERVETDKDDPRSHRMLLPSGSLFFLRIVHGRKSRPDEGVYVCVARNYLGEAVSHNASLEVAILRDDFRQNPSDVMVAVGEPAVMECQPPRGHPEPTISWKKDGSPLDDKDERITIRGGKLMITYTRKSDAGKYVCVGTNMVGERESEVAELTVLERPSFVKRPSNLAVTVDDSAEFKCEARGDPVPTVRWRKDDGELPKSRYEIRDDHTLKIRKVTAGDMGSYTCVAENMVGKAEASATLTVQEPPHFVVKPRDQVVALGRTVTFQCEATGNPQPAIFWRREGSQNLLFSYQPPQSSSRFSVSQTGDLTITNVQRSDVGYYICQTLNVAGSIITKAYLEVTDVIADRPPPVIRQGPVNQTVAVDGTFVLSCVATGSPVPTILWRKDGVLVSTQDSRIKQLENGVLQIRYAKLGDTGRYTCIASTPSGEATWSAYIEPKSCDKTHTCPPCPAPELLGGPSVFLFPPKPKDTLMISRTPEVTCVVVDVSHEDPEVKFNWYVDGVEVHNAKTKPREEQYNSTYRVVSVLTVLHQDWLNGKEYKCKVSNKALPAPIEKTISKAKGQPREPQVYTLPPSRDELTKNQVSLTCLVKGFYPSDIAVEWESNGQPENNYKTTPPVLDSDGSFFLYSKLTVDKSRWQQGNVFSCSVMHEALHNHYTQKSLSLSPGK

Binder: B1
binding result [1]: no binding

Binder: B2
binding result [1]: no binding

Binder: B3
binding result [2]: binds

Binder: B4
binding result [3]: no binding

Binder: B5
binding result [4]: binds
